According to paper PMC5499601 (Nucleic Acids Research, 2017):

B1: wild-type Bacillus subtilis Spo0J (BsSpo0J) (natural protein)
chain: MAKGLGKGINALFNQVDLSEETVEEIKIADLRPNPYQPRKHFDDEALAELKESVLQHGILQPLIVRKSLKGYDIVAGERRFRAAKLAGLDTVPAIVRELSEALMREIALLENLQREDLSPLEEAQAYDSLLKHLDLTQEQLAKRLGKSRPHIANHLRLLTLPENIQQLIAEGTLSMGHGRTLLGLKNKNKLEPLVQKVIAEQLNVRQLEQLIQQLNQNVPRETKKKEPVKDAVLKERESYLQNYFGTTVNIKRQKKKGKIEIEFFSNEDLDRILELLSERES
B2: BsSpo0J R79A (natural protein)
chain: MAKGLGKGINALFNQVDLSEETVEEIKIADLRPNPYQPRKHFDDEALAELKESVLQHGILQPLIVRKSLKGYDIVAGEARFRAAKLAGLDTVPAIVRELSEALMREIALLENLQREDLSPLEEAQAYDSLLKHLDLTQEQLAKRLGKSRPHIANHLRLLTLPENIQQLIAEGTLSMGHGRTLLGLKNKNKLEPLVQKVIAEQLNVRQLEQLIQQLNQNVPRETKKKEPVKDAVLKERESYLQNYFGTTVNIKRQKKKGKIEIEFFSNEDLDRILELLSERES
B3: BsSpo0J R105E (natural protein)
chain: MAKGLGKGINALFNQVDLSEETVEEIKIADLRPNPYQPRKHFDDEALAELKESVLQHGILQPLIVRKSLKGYDIVAGERRFRAAKLAGLDTVPAIVRELSEALMEEIALLENLQREDLSPLEEAQAYDSLLKHLDLTQEQLAKRLGKSRPHIANHLRLLTLPENIQQLIAEGTLSMGHGRTLLGLKNKNKLEPLVQKVIAEQLNVRQLEQLIQQLNQNVPRETKKKEPVKDAVLKERESYLQNYFGTTVNIKRQKKKGKIEIEFFSNEDLDRILELLSERES
B4: BsSpo0J P62A (natural protein)
chain: MAKGLGKGINALFNQVDLSEETVEEIKIADLRPNPYQPRKHFDDEALAELKESVLQHGILQALIVRKSLKGYDIVAGERRFRAAKLAGLDTVPAIVRELSEALMREIALLENLQREDLSPLEEAQAYDSLLKHLDLTQEQLAKRLGKSRPHIANHLRLLTLPENIQQLIAEGTLSMGHGRTLLGLKNKNKLEPLVQKVIAEQLNVRQLEQLIQQLNQNVPRETKKKEPVKDAVLKERESYLQNYFGTTVNIKRQKKKGKIEIEFFSNEDLDRILELLSERES
B5: BsSpo0J G77S (natural protein)
chain: MAKGLGKGINALFNQVDLSEETVEEIKIADLRPNPYQPRKHFDDEALAELKESVLQHGILQPLIVRKSLKGYDIVASERRFRAAKLAGLDTVPAIVRELSEALMREIALLENLQREDLSPLEEAQAYDSLLKHLDLTQEQLAKRLGKSRPHIANHLRLLTLPENIQQLIAEGTLSMGHGRTLLGLKNKNKLEPLVQKVIAEQLNVRQLEQLIQQLNQNVPRETKKKEPVKDAVLKERESYLQNYFGTTVNIKRQKKKGKIEIEFFSNEDLDRILELLSERES

Biological target: the molecule itself
Assay: SEC

Stoichiometry N, 2:
B1, B2, B3, B4, B5
